# Measurements taken from the supplement of paper PMC9170038.
# System: MS2 coat protein
# Experiment: apparent KD of MS2 coat protein; higher = weaker reporter binding
# Details: Eterna round: R107; input ligand: theophylline 2 mM
# Method in brief: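 Designed RNA switches were transcribed on-chip from Illumina sequencing clusters. SNAP-549-labelled MS2 coat protein was titrated onto them in twofold steps from 0.7 or 1.5 nM to 3 µM in 100 mM Tris-HCl pH 7.5, 80 mM KCl, 4 mM MgCl2, either without or with constant ligand. Apparent KD reflects the per-design median of normalised cluster binding-curve fits.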
row,Sequence,apparent KD of MS2 coat protein
1,ACAUGAGGAUCACCCAUGUAUCAACGGGAAGGAGCGCCAAACAAGGCAGGUAGGUCGCCCACAUGAGGAUCACCCGUGUGUUGGG [Exclusion Arginine A GF 30],43.9 nM
2,GGGCCCGGGCCCGCGCGGGCCCGGGCCCAACGAGGACCGGUACGGCCGCCACUCGAACGAGUGGGUACAUGAGGAUCACCCAUGU [Baa],48.6 nM
3,AGAGUCUAGUCGGCCGCCACUCAUGUCCAAUGGACAUGAGGAUCACCCAUGUACCGAAGGUACAUGAGGACCGGGACUGGACUCA [Omei Tryp B SS C v6],330 nM
4,AACGCGGUGAUGGUAGCCGGACGCUAGGUACGAGGACCGGUACGGCCGCCACUCGGAGUCCUACGACAUGAGGAUCACCCAUGUA [Same State Trp A GF15],145 nM
5,AGAUUCGACACGGCCGCCACUUUCAGUGGCUGGUCACAUGGUGCACAUGAGGAUCACCCAUGUGGAAGGACCGGGUGUUGAGUCU [XTryp B #25],38.3 nM
6,GCCAUCGGCGGAAGCCGAUGGGAUACAGAAGGAGCGUAGGAAACUACAGGUAGGUCGCUGGACAUGAGGAUCACCCAUGUGAUAG [SSAA #11],31.6 nM
7,UGUAUGUGAUCUGAUACCAGACGUGUAAACCUGAGGAUCACCCUGGUAAGGCGAAAGCCAGUCCCUUGGCAGCAGAUCGCAUACU,21.5 nM

# Same assay, conditions: Eterna round: R107; input ligand: tryptophan 2.4 mM
row,Sequence,apparent KD of MS2 coat protein
1,GAACAUGAGGAUCACCCAUGUAAAACAGAUACCAGUGAUAUAAUACACCCUUGGCAGCUGAAGCUGAAUAAUAAUUCCCUCAAGC [Same State Theophylline A GF1],15 nM
2,UUUAAUUUAAUAGAUACCAGCUAAUAAUAAUCCCGGAGGACAUGAGGAUCACCCAUGUGGAGCCCUUGGCAGCUAAAAUAAAUUU [Exclusion - Theophylline B],28.9 nM
3,UGAUCCUACAGAGAUACCAGUGCCGCUGAGUGACCAGACACAUGAGGAUCACCCAUGUAACACCCUUGGCAGCUCAACUAGAGGG [Same State Theophylline B GF19],22 nM
4,CCCGACGAGCCUGAGAUUAAGUAAGCGGAUACCAGAGAUAGGUAGCUCCCUUGGCAGCCGUGGACAUGAGGAUCACCCAUGUCAC [theeternabot_exclusion_MS2_Theo_A_22],10.9 nM
5,AGCACUGUGACGGCCGCCACUACAUAAAUUGGGUGGUCAGGUUCAUUACAUGAGGAUCACCCAUGUAGGACCGGGUCUCAGUGCA [Omei Trp Exc B A v8],7.33 nM
6,AGAUCUUUCGAAAGAAGGAUCUUGUCUGAUACCAGAGACGAAAGUCUCCCUUGGCAGCAGUGCCAACAUGAGGAUCACCCAUGUA [Theophylline A 12],21.3 nM
7,UUUGAUAUGACAGAUACCAGCGUGUUGUUGAACAUGAGGAUCACCCAUGUAGUGAUCAAGCGCCCUUGGCAGCUGGUGUGUUAGG [7.P],158 nM
8,UCUACAUGAGGAUCACCCAUGUGCCAUGAUACCAGACAUGAAAAUGUCCCUUGGCAGCAUGGGUAGCGCAUCCGAAAGGAUGCGU [#06 SameState-TheophyllineA],33.4 nM
9,AACAAUGCACAUGAGGAUCACCCAUGUGAUACCAGCCGCAACAUAGGCCCUUGGCAGCAUGUGGGUAUAGAACGAUUUGGCUGAA [Xeanle],41.7 nM
10,UGUAUGUGAUCUGAUACCAGUCCAACUGGUAAAGCAUGAGGAUCACCCAUGCAAAAUUGGGACCCUUGGCAGCAGAUCGCAUACU,267 nM
11,UUGGAUGAAGGAGUGAAAAGCAACUCAGAUACCAGUCUGAGUAAUGACCCUUGGCAGCUGAGAACAUGAGGAUCACCCAUGUGAC [theeternabot_exclusion_MS2_Theo_A_34],17.1 nM
12,UCUGGGUGCGCAAGGACCUGGAGUUGCGAUACCAGCACGGUAACGUGCCCUUGGCAGCGCACAUGAGGAUCACCCAUGUGGUGUU [#1 Exclusion - Theophylline A Attempt #18 (HarryS)],204 nM
13,UACUUGCUGACGGCCGCCACUAGAACAUGAGGAUCACCCAUGUAUUCUAGUCGUCAUGGGUGGACUAGGACCGGGUCAGCAAGAU [(Trp1)-(Ms2)-(T)'-(M)'-(Trp2)_Design8],192 nM
14,AGAGAGGCGCAUGAUACCAGCUUGGCCUAACAUGAGGAUCACCCAUGUCAAUGGGCCUUAAGCCCUUGGCAGCAUAGGGUGUCCU [Xeestixexe],85.9 nM
15,AUGUUGGUCUGAAGGAGCGCGAUAACAUGAGGAUCACCCAUGUUAAAUGGUACAUGAUACUCGCAGGUAGGUCGCAGUACGACAA [Same State Arginine B GF 13],25.1 nM
16,AUGUCAUUGGUGCAGCUGUUAAAUGGCGAUACCAGCGUGGAAACACGCCCUUGGCAGCGCCAAAACAUGAGGAUCACCCAUGUUA [Zlin],27.1 nM
17,UUGUGUUUAUUGGUUUAGCUAUUAUGGUUGCGAGGACCGGUACGGCCGCCACUCGAUGGAACAUGAGGAUCACCCAUGUGAGGAA [JR_ExcTryptoA_Sub013],22.1 nM
18,UGACAUGAGGAUCACCCAUGUGUAAGAGAAGGAGCGGCCGGAAGGCCAGGUAGGUCGCUCAGGUAGCGUGAGGAUCACCCGUGUG [big_hook],35.7 nM
19,AGUUAAAUAUGUUAAUAACUAUUUACUGAAGGAGCGUGUUUUUACACAGGUAGGUCGCAGUGACAUGAGGAUCACCCAUGUAGUA [JR_SSArginiA_Sub012],33.4 nM
20,UAACAUGAGGAUCACCCAUGUUUAGAUGAACGAGGACCGGUACGGCCGCCACUCGAUAAGUGGAAAGAGCGAGGGAUUGUAUGCU [Same State Trp A GF4],11.9 nM
21,UUGGGUUUGUGAAGGAGCGGGAAUGUUUUAUAGUGGAUCCUAACAUGAGGAUCACCCAUGUCCCAGGUAGGUCGCGCGGGUUUGG [12.S],55.5 nM
22,CGCCGCGCGGGAAGGAGCGCGAUUACAUAACAUGAGGAUCACCCAUGUAAGAAAUUAUUCAUGCAGGUAGGUCGCCCGCGCGGCG [Same State Arginine B GF 5],22.8 nM
23,AUAUGAAAGAGUGAUACCAGACUACAUGAGGAUCACCCAUGUGACAUUUAAAUAUCAUUUGUCCCUUGGCAGCACAUUAAGUACA [JR_Nu_ExcTheophyB_Sub021],43 nM
24,ACAUGAGGAUCACCCAUGUAUCAACGGGAAGGAGCGCCAAACAAGGCAGGUAGGUCGCCCACAUGAGGAUCACCCGUGUGUUGGG [Exclusion Arginine A GF 30],38.4 nM
25,AAUAACAUGAGGAUCACCCAUGUAAAAGAUACCAGAGUGAUGAUCCUCCCUUGGCAGCUUAACGCUGAUUGGAAACAAUCAGCGA [Mat - Same State Theophlline A - Mod of Eli - D1],67.6 nM
26,GGGCCCGGGCCCGCGCGGGCCCGGGCCCAACGAGGACCGGUACGGCCGCCACUCGAACGAGUGGGUACAUGAGGAUCACCCAUGU [Baa],33.4 nM
27,AUAUUACAUGUUAUUAUACGGUAUACUGAUACCAGUGUUUCUAUUCACCCUUGGCAGCAGCAACAUGAGGAUCACCCAUGUAUUA [JR_SSTheophyA_Sub018],18 nM
28,AUCUCGUUCAAUAUACCGCCUUGACUAGAUACCAGCAUGGACCCAUGCCCUUGGCAGCUGGACAUGAGGAUCACCCAUGUUUCAG [SSTheo A #27],10.8 nM
29,GCCAUCGGCGGAAGCCGAUGGGAUACAGAAGGAGCGUAGGAAACUACAGGUAGGUCGCUGGACAUGAGGAUCACCCAUGUGAUAG [SSAA #11],22.7 nM
30,UGUAUGUGAUCUGAUACCAGACGUGUAAACCUGAGGAUCACCCUGGUAAGGCGAAAGCCAGUCCCUUGGCAGCAGAUCGCAUACU,50 nM
